Results from PMC5481773 (2017).

What follows are binders tested against His-tagged Proliferating Cell Nuclear Antigen (PCNA) (human, UniProt P12004 1-261) (assay: ITC).
His-tagged Proliferating Cell Nuclear Antigen (PCNA), sequence (P12004 whole entry): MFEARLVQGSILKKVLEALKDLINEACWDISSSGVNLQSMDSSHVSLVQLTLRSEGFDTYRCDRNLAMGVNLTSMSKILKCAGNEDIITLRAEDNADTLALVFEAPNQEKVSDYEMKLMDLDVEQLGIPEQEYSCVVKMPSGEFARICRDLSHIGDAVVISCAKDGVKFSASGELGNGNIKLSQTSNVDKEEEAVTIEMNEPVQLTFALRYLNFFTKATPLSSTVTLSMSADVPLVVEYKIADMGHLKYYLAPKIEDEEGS

Kd [µM] | Binder
17.3 | QGSTQGRLDDFFKVT (Exact limits are in the supplement. Window is the 15-mer homologous to ZRANB3 515-529, aligned on Q337. Termini chemistry not stated.) [FEN1 PIP box peptide used for ITC]
0.275 | RKRRQTSMTDFYHSK (Exact limits are in the supplement. Window is the 15-mer homologous to ZRANB3 515-529, aligned on Q144. Check residues are not named in the paper. Termini chemistry not stated.) [p21 PIP box peptide used for ITC]
5.45 | NTAKKGLIDYYLMPS (Exact limits are in the supplement. Window is the 15-mer homologous to ZRANB3 515-529 (equal lengths stated); the PIP box KGLIDYYL is 421-428 in 715-aa numbering, +25 in the 740-aa entry. Check residues are not named in the paper. Termini chemistry not stated.) [Polι PIP box peptide used for ITC]
